From the RNAGym collection of RNA variant scans (doi:10.1073/pnas.2313332121)
Variants at the floor of the assay were thinned out.

B1: TPR 5TU (parent)
chain: GGAUCUUCUCGAUCUAACAAAAAAGACAAAUCUGCCACAAAGCUUGAGAGCAUCUUCGGAUGCAGAGGCGGCAGCCUUCGGUGGCGCGAUAGCGCCAACGUUCUCAACUAUGACACGCAAAACGCGUGCUCCGUUGAAUGGAGUUUAUCAUG

Variants of: B1
Test: polymerase ribozyme fitness, log enrichment relative to wild type (log ratio); higher = more active; in vitro selection for triplet polymerase activity
Outline: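 The heterodimeric triplet polymerase ribozyme's subunits were each mutagenized into PCR-built libraries and transcribed. Every library was selected once, in triplicate, by annealing with a biotinylated primer, the partner subunit and triplets, incubating frozen at −7 °C, gel-excising extended constructs, capturing on streptavidin beads and running RT-PCR. Input and output libraries were Illumina-sequenced, with genotypes kept only at ≥10 input reads and ≥1 read per output. Fitness, from inverse-variance-weighted replicate averages, is the base-2 logarithm of genotype enrichment over wild-type enrichment.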

| Variant | polymerase ribozyme fitness (log ratio) |
| --- | --- |
| G68A A138G | ≤ -4.2 |
| G65A G67C G92A | ≤ -4.2 |
| A64G C93G | -4.05 |
| G67U C85G | ≤ -4.2 |
| C63U U148C | -1.65 |
| G68A C85G | ≤ -4.2 |
| G68A C85U | -3.48 |
| C69U G86C | ≤ -4.2 |
| C69A C72U | -3.05 |
| G67C A97C C103G C125U C129U A142U G143C A150U | ≤ -4.2 |
| G67C C93G C118G A150C | ≤ -4.2 |
| G67A U78G G86U C99U G141A | ≤ -4.2 |
| G65C G68A G83A A115U G140A | ≤ -4.2 |
| G68C C79A G83U U101A U104C C108G A142G | ≤ -4.2 |
| G68U C75A G81U G83A C95U C96U C116U | -1.31 |
| G67U C76G G143A A150G | ≤ -4.2 |
| C63U G126C | 0.627 |
| C69A C87A A106C G140A | ≤ -4.2 |
| G67U C93U | -3.74 |
| C69A U144C | -1.07 |
| C69A C118G | -2.21 |
| C69A C118U | -1.62 |
| A64U A110G | ≤ -4.2 |
| G68U C85A A110G C132G A137G G141C U151G | ≤ -4.2 |

| Variant | polymerase ribozyme fitness (log ratio) |
| --- | --- |
| G65A C85A | -2.26 |
| A64G G68C A142G G143A | ≤ -4.2 |
| G67A A91G U135G C149U | ≤ -4.2 |
| A64C G65A A107G G112U G124A G141U U148G | ≤ -4.2 |
| A66U C75G U82G A106C C116U | ≤ -4.2 |
| G70A A73U G133A U135G | ≤ -4.2 |
| C69U G70C C93G C114A A150C | ≤ -4.2 |
| A66G U90G C93G | ≤ -4.2 |
| C69A U104G | -3.09 |
| C69A G71U C85G C103U G117C | -3.28 |
| C69A A73C G84U U109C C118A | ≤ -4.2 |
| G65U G71C A73U A122U G126A A137C U146A | ≤ -4.2 |
| G65U C72A C85A U135G | ≤ -4.2 |
| G67C G68A G83A U90A G117A | ≤ -4.2 |
| G67C C87A G100A | ≤ -4.2 |
| A66C A73G G80C C114A G141A | ≤ -4.2 |
| G67C G94A U139A A142U | ≤ -4.2 |
| G68U C99U G117C G143A | ≤ -4.2 |
| A64G G80U C85U C93U G94U C103U | -4.18 |
| A66G U82G C93A | ≤ -4.2 |
| G68A C93G C129A U130A | ≤ -4.2 |
| G68A G88C A110C U135C | ≤ -4.2 |
| A64U U148G | ≤ -4.2 |
| G67A G84U | ≤ -4.2 |

| Variant | polymerase ribozyme fitness (log ratio) |
| --- | --- |
| C63U G83C U102A A142G A150C | ≤ -4.2 |
| G67U A89C C96G A106C A119C | ≤ -4.2 |
| G67A C85G A106G C129U G140C G143A | ≤ -4.2 |
| G65U G94A | ≤ -4.2 |
| A66G A89U C93U C95G | ≤ -4.2 |
| A64G A150U | -3.42 |
| A66G C85U U111G U146A | ≤ -4.2 |
| G65C C132G | ≤ -4.2 |
| C69A A91U | ≤ -4.2 |
| C69A A91G | -3.81 |
| G68A C87A A106C G117U | ≤ -4.2 |
| A64U G92A C95A U101C C105U C123A G124C U145G U148G | ≤ -4.2 |
| C69A G94C | -0.673 |
| G65A C93U | -1.96 |
| G68U | -3.71 |
| G68A | -3.29 |
| G68C | -3.92 |
| C69A C75U A106G A120G | -2.33 |
| A66G C93A C95A C96U C116U | ≤ -4.2 |
| C63U C96U A150G | -1.22 |
| C63U G141U | 1.25 |
| A64U G92A G117C U145A | ≤ -4.2 |
| G67U U102G | ≤ -4.2 |
| A66C G92C C96G A120G | -4.14 |

| Variant | polymerase ribozyme fitness (log ratio) |
| --- | --- |
| C69A A119U | -2.7 |
| A66C | -4.16 |
| A66G | -2.32 |
| A66U | -3.46 |
| G67C C76U C96U C149U | ≤ -4.2 |
| C63U A122C | -0.464 |
| C69G U77C C87U G140U | ≤ -4.2 |
| C69U A73G G83C | -3.38 |
| G67A C114U U134G A150C | ≤ -4.2 |
| G67U G74C C103U A121U A137C U144G | ≤ -4.2 |
| A64G A91G C123G | ≤ -4.2 |
| G65A C85U A97U | -2.46 |
| G68A C75U C85G G136U U148A | ≤ -4.2 |
| G65A C75A G81U G94A C105U G140U | -3.7 |
| G68U A73G C76U A91U A98G C99A G112U | ≤ -4.2 |
| A66G A73U G81A G92U U111C | ≤ -4.2 |
| G68A C93U | -4.04 |
| C63U C85G U127A U139A U145C | ≤ -4.2 |
| A66G C123G | ≤ -4.2 |
| A66C C76U U82G C85G C125G | ≤ -4.2 |
| C63U U139G | 0.261 |
| C63U U104G | 0.272 |
| A64U C96U C105G G141A A147G | ≤ -4.2 |
| C69U G94C | -1.65 |

| Variant | polymerase ribozyme fitness (log ratio) |
| --- | --- |
| A66U C87A A106U G143C | ≤ -4.2 |
| C69A C76A U109C | ≤ -4.2 |
| G68A A91G G128A | ≤ -4.2 |
| C63U G70A G80C G83C C108G C116U | ≤ -4.2 |
| C63U G81C U82C U102G U104A C108A A150C | ≤ -4.2 |
| G68U C69A A113G G117A | ≤ -4.2 |
| A64C C85A | ≤ -4.2 |
| C69U C85G G141A | -2.66 |
| G68C U78C C96A A98G G143A | ≤ -4.2 |
| G67C G88C C116G A122U G128U U144A | ≤ -4.2 |
| A66G U111C | ≤ -4.2 |
| C69A C79A A115U C118A | ≤ -4.2 |
| G68C C85U | -3.93 |
| C69A G83A A121C | -1.84 |
| G68A G80A G86U U90G A91G G136A A142G | ≤ -4.2 |
| G68C U104G C105G C118U G133C | ≤ -4.2 |
| A64G A91C | ≤ -4.2 |
| G68U C85U U144A | -4.15 |
| C69A U101G G126A | -0.681 |
| G68A C76A G86A U102C G124C G152A | ≤ -4.2 |
| G68A U139C | ≤ -4.2 |
| A64G C69G C75A C85A A89U C93A U104G | ≤ -4.2 |
| C63U C103G U146G | -2.3 |
| A66U G68C C105A | ≤ -4.2 |

| Variant | polymerase ribozyme fitness (log ratio) |
| --- | --- |
| C63U G70A C85G A138C | ≤ -4.2 |
| C63U C93A C116G A142G | -3.41 |
| A64G U82G A91U C95U A110U U111G | ≤ -4.2 |
| G67A C87U A107U C125G G126C | -4.14 |
| G67C C93G C99G A137U U146A | ≤ -4.2 |
| C69U A106C | -2.21 |
| G67U C87U | -3.88 |
| C69G C103A U144G | -1.57 |
| C63U A98G G126U C129G | ≤ -4.2 |
| G68A G88A C96G C118A G126A | -4.16 |
| G67U U146C | -2.47 |
| C69U C116G | 0.325 |
| A66C C69U C96U | ≤ -4.2 |
| A64G C75G G84U U127A A142U | ≤ -4.2 |
| G68U C95U C96U A113C G124U | ≤ -4.2 |
| G65C G71U | ≤ -4.2 |
| A66G U102A U135C | ≤ -4.2 |
| G67A G81A A91C A137C U148C | ≤ -4.2 |
| C69U C76G | ≤ -4.2 |
| G65C G88U A106U G140C | ≤ -4.2 |
| C63U U82G G126A G140A | -3.92 |
| C63U C69A C85U A97C C118G G126C | -3.97 |
| A66U C96A U111A A122G A138C | ≤ -4.2 |
| C69G A106C A137C | ≤ -4.2 |

| Variant | polymerase ribozyme fitness (log ratio) |
| --- | --- |
| C69G C85U A91G C118A C129G U144A | ≤ -4.2 |
| C69A G83C | -3.07 |
| G68A A106C A120G A138C | ≤ -4.2 |
| C69A G84A A89G U146C | -2.59 |
| C69A G83C U101G | ≤ -4.2 |
| C69U G136A A142U | -0.531 |
| C69A C76U A98U C125U | -1.9 |
| G68U A73U G94A A119U | ≤ -4.2 |
| A64C G71A A107G G141C | ≤ -4.2 |
| C63U C125U G133U | -3.67 |
| G68C G84A C85A | ≤ -4.2 |
| G67C C93U A107C C125G | ≤ -4.2 |
| A66G G133U U145A | ≤ -4.2 |
| C63U A91U C93G U139G | ≤ -4.2 |
| C69U C95U | -1.47 |
| G67U G83U U101G | ≤ -4.2 |
| C69U G94A A122G U135A U146G | -2.95 |
| A66U C76G C85A C95U U102G A113U C116A A142C | ≤ -4.2 |
| G68C A91C A106U U127A | ≤ -4.2 |
| G65C C99G | ≤ -4.2 |
| G68A G74C G88A | ≤ -4.2 |
| C69A G140U | -3.21 |
| C69U U78A A97U G143C | ≤ -4.2 |
